Measured values reported in the supplement of paper PMC9112550, “Optimization of the antimicrobial peptide Bac7 by deep mutational scanning” (BMC Biology, 2022).

These sequences were tested on Escherichia coli TOP10 (assay: shrunken log2 fold change of peptide-encoding DNA abundance (4.5 h post-induction vs induction); higher = less antimicrobial activity (less host growth inhibition)). Details: time post-induction: 4.5 h; library: site-saturation at positions 5, 18, 19, 20.
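Further: peptides expressed intracellularly from a pBAD plasmid library in pooled LB shake-flask culture, induced with 0.3% L-arabinose, DNA abundance read by NGS, three biological replicates, DESeq2 with apeglm shrinkage.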

| Sequence | shrunken log2 fold change |
| --- | --- |
| RRIRPRPPRLPRPRPRPTGGPRP | 0.392 |
| RRIRLRPPRLPRPRPRPSGSPRP | 0.182 |
| RRIRHRPPRLPRPRPRPMAEPRP | -0.165 |
| RRIRIRPPRLPRPRPRPNSVPRP | -0.342 |
| RRIRDRPPRLPRPRPRPHHPPRP | -0.408 |
| RRIRTRPPRLPRPRPRPPTRPRP | 0.663 |
| RRIRCRPPRLPRPRPRPFCFPRP | -0.0725 |
| RRIRHRPPRLPRPRPRPSTHPRP | -0.564 |
| RRIRNRPPRLPRPRPRPPLIPRP | -0.193 |
| RRIRARPPRLPRPRPRPFQLPRP | -0.94 |
| RRIRPRPPRLPRPRPRPWSIPRP | -0.0637 |
| RRIRMRPPRLPRPRPRPSAHPRP | 0.423 |
| RRIRKRPPRLPRPRPRPYKRPRP | -0.338 |
| RRIRERPPRLPRPRPRPESPPRP | 0.0699 |
| RRIRVRPPRLPRPRPRPHYKPRP | -0.389 |
| RRIRERPPRLPRPRPRPIEQPRP | -0.00133 |
| RRIRGRPPRLPRPRPRPLGLPRP | 0.841 |
| RRIRERPPRLPRPRPRPPGWPRP | 0.467 |
| RRIRLRPPRLPRPRPRPDVRPRP | 0.0235 |
| RRIRERPPRLPRPRPRPVPCPRP | -0.193 |
| RRIRVRPPRLPRPRPRPQEPPRP | 0.0426 |
| RRIRLRPPRLPRPRPRPQIKPRP | -0.187 |
| RRIRWRPPRLPRPRPRPWCWPRP | 0.304 |
| RRIRMRPPRLPRPRPRPHHAPRP | 0.0324 |
| RRIRSRPPRLPRPRPRPMMNPRP | -0.0187 |

| Sequence | shrunken log2 fold change |
| --- | --- |
| RRIRMRPPRLPRPRPRPKPCPRP | 0.366 |
| RRIRFRPPRLPRPRPRPALIPRP | -0.00983 |
| RRIRPRPPRLPRPRPRPWEHPRP | -0.0525 |
| RRIRPRPPRLPRPRPRPQPMPRP | 0.225 |
| RRIRERPPRLPRPRPRPWAAPRP | -0.101 |
| RRIRMRPPRLPRPRPRPFAIPRP | -0.0351 |
| RRIRLRPPRLPRPRPRPHRFPRP | 0.0608 |
| RRIRWRPPRLPRPRPRPVDMPRP | -0.0613 |
| RRIRHRPPRLPRPRPRPDCKPRP | -0.148 |
| RRIRARPPRLPRPRPRPVQVPRP | 0.123 |
| RRIRGRPPRLPRPRPRPMLSPRP | 0.393 |
| RRIRNRPPRLPRPRPRPGMHPRP | -0.015 |
| RRIRTRPPRLPRPRPRPDQFPRP | -0.00188 |
| RRIRTRPPRLPRPRPRPAILPRP | -0.157 |
| RRIRHRPPRLPRPRPRPMMIPRP | 0.00431 |
| RRIRERPPRLPRPRPRPIAHPRP | -0.171 |
| RRIRRRPPRLPRPRPRPQDPPRP | 0.376 |
| RRIRVRPPRLPRPRPRPDEFPRP | -0.0422 |
| RRIRPRPPRLPRPRPRPYAEPRP | -0.377 |
| RRIRERPPRLPRPRPRPLLPPRP | -0.119 |
| RRIRYRPPRLPRPRPRPRYQPRP | -0.0935 |
| RRIRYRPPRLPRPRPRPYMMPRP | -0.337 |
| RRIRYRPPRLPRPRPRPKCKPRP | -0.161 |
| RRIRMRPPRLPRPRPRPVRRPRP | 0.447 |
| RRIRGRPPRLPRPRPRPHRVPRP | 0.0916 |

| Sequence | shrunken log2 fold change |
| --- | --- |
| RRIRDRPPRLPRPRPRPWWVPRP | -0.335 |
| RRIRYRPPRLPRPRPRPTHWPRP | 0.272 |
| RRIRARPPRLPRPRPRPHGIPRP | 0.0225 |
| RRIRCRPPRLPRPRPRPWCRPRP | -0.282 |
| RRIRWRPPRLPRPRPRPCGNPRP | 0.0696 |
| RRIRDRPPRLPRPRPRPYKRPRP | 0.000522 |
| RRIRDRPPRLPRPRPRPQSIPRP | 0.00839 |
| RRIRMRPPRLPRPRPRPCPTPRP | 0.11 |
| RRIRIRPPRLPRPRPRPYTIPRP | -0.605 |
| RRIRFRPPRLPRPRPRPVTHPRP | -0.303 |
| RRIRFRPPRLPRPRPRPTQTPRP | -0.199 |
| RRIRKRPPRLPRPRPRPSNQPRP | -0.018 |
| RRIRERPPRLPRPRPRPNKRPRP | -0.164 |
| RRIRSRPPRLPRPRPRPYFCPRP | -0.354 |
| RRIRPRPPRLPRPRPRPRQQPRP | 0.13 |
| RRIRVRPPRLPRPRPRPSAVPRP | -0.0662 |
| RRIRLRPPRLPRPRPRPMPTPRP | 0.449 |
| RRIRERPPRLPRPRPRPHMPPRP | -0.197 |
| RRIRLRPPRLPRPRPRPEEDPRP | -0.00133 |
| RRIRSRPPRLPRPRPRPMHIPRP | -0.283 |
| RRIRARPPRLPRPRPRPRWLPRP | 0.68 |
| RRIRGRPPRLPRPRPRPDLFPRP | 0.723 |
| RRIRYRPPRLPRPRPRPFIYPRP | -0.86 |
| RRIRERPPRLPRPRPRPAVCPRP | 0.086 |
| RRIRGRPPRLPRPRPRPMNKPRP | 1.69 |

| Sequence | shrunken log2 fold change |
| --- | --- |
| RRIRERPPRLPRPRPRPLSLPRP | -0.371 |
| RRIRIRPPRLPRPRPRPVHLPRP | -0.0973 |
| RRIRRRPPRLPRPRPRPSYAPRP | 0.0616 |
| RRIRERPPRLPRPRPRPETPPRP | 0.784 |
| RRIRERPPRLPRPRPRPNLAPRP | -0.194 |
| RRIRSRPPRLPRPRPRPTWDPRP | 0.53 |
| RRIRQRPPRLPRPRPRPFYAPRP | -0.0278 |
| RRIRCRPPRLPRPRPRPSQFPRP | -0.787 |
| RRIRKRPPRLPRPRPRPCEGPRP | 0.0796 |
| RRIRFRPPRLPRPRPRPFFEPRP | 0.0992 |
| RRIRQRPPRLPRPRPRPKNQPRP | -0.214 |
| RRIRARPPRLPRPRPRPAFFPRP | 0.479 |
| RRIRRRPPRLPRPRPRPWHCPRP | -0.18 |
| RRIRSRPPRLPRPRPRPSGQPRP | -0.0423 |
| RRIRRRPPRLPRPRPRPYTTPRP | -0.354 |
| RRIRWRPPRLPRPRPRPSPGPRP | -0.0366 |
| RRIRRRPPRLPRPRPRPWFEPRP | 0.0607 |
| RRIRKRPPRLPRPRPRPGKFPRP | -0.174 |
| RRIRARPPRLPRPRPRPHVLPRP | -0.0367 |
| RRIRNRPPRLPRPRPRPQHHPRP | -0.432 |
| RRIRLRPPRLPRPRPRPLRMPRP | 0.222 |
| RRIRPRPPRLPRPRPRPSGMPRP | -0.183 |
| RRIRPRPPRLPRPRPRPIRMPRP | -0.039 |
| RRIRPRPPRLPRPRPRPTEWPRP | 0.0519 |
| RRIRVRPPRLPRPRPRPEGNPRP | 0.00902 |

| Sequence | shrunken log2 fold change |
| --- | --- |
| RRIRERPPRLPRPRPRPTDGPRP | 0.158 |
| RRIRERPPRLPRPRPRPPYRPRP | 0.0947 |
| RRIRTRPPRLPRPRPRPGMDPRP | 0.0475 |
| RRIRLRPPRLPRPRPRPQEYPRP | -0.846 |
| RRIRTRPPRLPRPRPRPLYPPRP | -0.154 |
| RRIRIRPPRLPRPRPRPKPAPRP | 0.243 |
| RRIRQRPPRLPRPRPRPAKFPRP | -0.103 |
| RRIRKRPPRLPRPRPRPQVEPRP | 0.248 |
| RRIRRRPPRLPRPRPRPYMTPRP | -0.0329 |
| RRIRPRPPRLPRPRPRPHIIPRP | -0.19 |
| RRIRERPPRLPRPRPRPIMSPRP | -0.38 |
| RRIRSRPPRLPRPRPRPRQEPRP | -0.0798 |
| RRIRPRPPRLPRPRPRPSIIPRP | -0.634 |
| RRIRRRPPRLPRPRPRPDKLPRP | -0.115 |
| RRIRCRPPRLPRPRPRPIRIPRP | 0.0952 |
| RRIRRRPPRLPRPRPRPILYPRP | 0.143 |
| RRIRARPPRLPRPRPRPTHWPRP | 0.863 |
| RRIRTRPPRLPRPRPRPIRRPRP | 0.0581 |
| RRIRSRPPRLPRPRPRPPIMPRP | -0.0485 |
| RRIRRRPPRLPRPRPRPSIMPRP | -0.213 |
| RRIRMRPPRLPRPRPRPCHLPRP | -0.0745 |
| RRIRFRPPRLPRPRPRPHHNPRP | -0.754 |
| RRIRGRPPRLPRPRPRPQEDPRP | 0.291 |
| RRIRMRPPRLPRPRPRPENWPRP | 0.795 |
| RRIRKRPPRLPRPRPRPRIAPRP | 0.599 |

| Sequence | shrunken log2 fold change |
| --- | --- |
| RRIRFRPPRLPRPRPRPPVMPRP | 0.0132 |
| RRIRYRPPRLPRPRPRPRYTPRP | -0.0817 |
| RRIRSRPPRLPRPRPRPTFDPRP | 0.0254 |
| RRIRHRPPRLPRPRPRPSWRPRP | -0.0493 |
| RRIRYRPPRLPRPRPRPVEVPRP | -0.282 |
| RRIRVRPPRLPRPRPRPCLVPRP | -0.115 |
| RRIRLRPPRLPRPRPRPYFDPRP | -0.255 |
| RRIRFRPPRLPRPRPRPGYTPRP | -0.427 |
| RRIRHRPPRLPRPRPRPRHKPRP | -0.556 |
| RRIRQRPPRLPRPRPRPIHTPRP | 0.0773 |
| RRIRTRPPRLPRPRPRPDPTPRP | -0.0451 |
| RRIRWRPPRLPRPRPRPVPPPRP | 0.372 |
| RRIRTRPPRLPRPRPRPAKWPRP | -0.000772 |
| RRIRGRPPRLPRPRPRPECFPRP | 1.92 |
| RRIRERPPRLPRPRPRPVRCPRP | 0.162 |
| RRIRCRPPRLPRPRPRPKDLPRP | -0.46 |
| RRIRLRPPRLPRPRPRPFNYPRP | -0.817 |
| RRIRERPPRLPRPRPRPVDTPRP | 0.000639 |
| RRIRWRPPRLPRPRPRPEHYPRP | -1.14 |
| RRIRNRPPRLPRPRPRPEKNPRP | 0.907 |
| RRIRGRPPRLPRPRPRPRLMPRP | 0.617 |
| RRIRHRPPRLPRPRPRPMAGPRP | -0.0581 |
| RRIRWRPPRLPRPRPRPDQPPRP | 0.234 |
| RRIRARPPRLPRPRPRPQAHPRP | 0.324 |
| RRIRWRPPRLPRPRPRPTWAPRP | 0.369 |
